According to the Human Domainome abundance scans (Beltran et al. 2025):
± gives the uncertainty stated by the source.

B1: Cullin-9, residues 2234 to 2275; numbered along this chain, Q8IWT3 (parent)
chain: KRCPSCQAPIEKNEGCLHMTCAKCNHGFCWRCLKSWKPNHKD
B2: POU domain, class 4, transcription factor 3, residues 185 to 256; numbered along this chain, Q15319 (parent)
chain: RELEAFAERFKQRRIKLGVTQADVGAALANLKIPGVGSLSQSTICRFESLTLSHNNMIALKPVLQAWLEEAE

Variants of: B1
Assay: abundance fitness (aPCA) (normalised: wild type 0, dead -1); higher = more abundant; growth selection in yeast, the domain comes from the species named
Details: Homo sapiens

Variant | abundance fitness
KRCPSCQAPIEKNEGCLHMTCAKCNHGFCWRCLKSWKPDHKD [N39D] | 0.244 ± 0.11
KRCPSCQAPIEKNEGCLHMTCAKCNHGFCWRCLKSWVPNHKD [K37V] | 0.078 ± 0.087
KRCPSCQAPIEKNEGCLHMTCAKCNHGFCWRCLKSWLPNHKD [K37L] | -0.143 ± 0.096
KRCPSCQAPIEKNEGCLHMTCAKCNHGFCWRCLKSWTPNHKD [K37T] | 0.117 ± 0.1
KRCPSCQAPIEKNEGCLHMTCAKCNHGFCWRCLKSWCPNHKD [K37C] | 0.057 ± 0.11
KRCPSCQAPIEKNEGCLHMTCAKCNHGFCWRCLKSWGPNHKD [K37G] | 0.125 ± 0.071
KRCPSCQAPIEKNEGCLHMTCAKCNHGFCWRCLKSWDPNHKD [K37D] | 0.323 ± 0.11
KRCPSCQAPIEKNEGCLHMTCAKCNHGFCWRCLKSWPPNHKD [K37P] | -0.056 ± 0.094
KRCPSCQAPIEKNEGCLHMTCAKCNHGFCWRCLKSWRPNHKD [K37R] | -0.156 ± 0.078
KRCPSCQAPIEKNEGCLHMTCAKCNHGFCWRCLKSWSPNHKD [K37S] | 0.234 ± 0.099
KRCPSCQAPIEKNEGCLHMTCAKCNHGFCWRCLKSWQPNHKD [K37Q] | 0.121 ± 0.1
KRCPSCQAPIEKNEGCLHMTCAKCNHGFCWRCLKSWIPNHKD [K37I] | -0.039 ± 0.14
KRCPSCQAPIEKNEGCLHMTCAKCNHGFCWRCLKSWWPNHKD [K37W] | -0.168 ± 0.098
KRCPSCQAPIEKNEGCLHMTCAKCNHGFCWRCLKSWFPNHKD [K37F] | -0.193 ± 0.16
KRCPSCQAPIEKNEGCLHMTCAKCNHGFCWRCLKSWMPNHKD [K37M] | -0.261 ± 0.12
KRCPSCQAPIEKNEGCLHMTCAKCNHGFCWRCLKSWEPNHKD [K37E] | 0.219 ± 0.089
KRCPSCQAPIEKNEGCLHMTCAKCNHGFCWRCLKSWYPNHKD [K37Y] | -0.059 ± 0.15
KRCPSCQAPIEKNEGCLHMTCAKCNHGFCWRCLKSHKPNHKD [W36H] | -0.015 ± 0.47
KRCPSCQAPIEKNEGCLHMTCAKCNHGFCWRCLKSKKPNHKD [W36K] | 0.13 ± 0.13
KRCPSCQAPIEKNEGCLHMTCAKCNHGFCWRCLKSPKPNHKD [W36P] | 0.067 ± 0.12
KRCPSCQAPIEKNEGCLHMTCAKCNHGFCWRCLKSYKPNHKD [W36Y] | -0.17 ± 0.24
KRCPSCQAPIEKNEGCLHMTCAKCNHGFCWRCLKSVKPNHKD [W36V] | 0.304 ± 0.074

Variant | abundance fitness
KRCPSCQAPIEKNEGCLHMTCAKCNHGFCWRCLKSTKPNHKD [W36T] | 0.147 ± 0.1
KRCPSCQAPIEKNEGCLHMTCAKCNHGFCWRCLKSLKPNHKD [W36L] | 0.205 ± 0.093
KRCPSCQAPIEKNEGCLHMTCAKCNHGFCWRCLKSSKPNHKD [W36S] | 0.118 ± 0.088
KRCPSCQAPIEKNEGCLHMTCAKCNHGFCWRCLKSNKPNHKD [W36N] | -0.355 ± 0.34
KRCPSCQAPIEKNEGCLHMTCAKCNHGFCWRCLKSRKPNHKD [W36R] | -0.25 ± 0.079
KRCPSCQAPIEKNEGCLHMTCAKCNHGFCWRCLKSQKPNHKD [W36Q] | 0.082 ± 0.13
KRCPSCQAPIEKNEGCLHMTCAKCNHGFCWRCLKSWKPNVKD [H40V] | 0.006 ± 0.086
KRCPSCQAPIEKNEGCLHMTCAKCNHGFCWRCLKSWKPNQKD [H40Q] | -0.123 ± 0.14
KRCPSCQAPIEKNEGCLHMTCAKCNHGFCWRCLKSWKPNYKD [H40Y] | -0.451 ± 0.32
KRCPSCQAPIEKNEGCLHMTCAKCNHGFCWRCLKSWKPNAKD [H40A] | 0.05 ± 0.077
KRCPSCQAPIEKNEGCLHMTCAKCNHGFCWRCLKSWKPNGKD [H40G] | -0.102 ± 0.073
KRCPSCQAPIEKNEGCLHMTCAKCNHGFCWRCLKSWKPNWKD [H40W] | -0.427 ± 0.094
KRCPSCQAPIEKNEGCLHMTCAKCNHGFCWRCLKSWKPNCKD [H40C] | -0.24 ± 0.14
KRCPSCQAPIEKNEGCLHMTCAKCNHGFCWRCLKSWKPNRKD [H40R] | -0.283 ± 0.087
KRCPSCQAPIEKNEGCLHMTCAKCNHGFCWRCLKSWKPNTKD [H40T] | -0.359 ± 0.13
KRCPSCQAPIEKNEGCLHMTCAKCNHGFCWRCLKSWKPNMKD [H40M] | 0.13 ± 0.1
KRCPSCQAPIEKNEGCLHMTCAKCNHGFCWRCLKSWKPNPKD [H40P] | -0.091 ± 0.11
KRCPSCQAPIEKNEGCLHMTCAKCNHGFCWRCLKSWKPNDKD [H40D] | 0.111 ± 0.25
KRCPSCQAPIEKNEGCLHMTCAKCNHGFCWRCLKSWKPNSKD [H40S] | 0.066 ± 0.11
KRCPSCQAPIEKNEGCLHMTCAKCNHGFCWRCLKSWKPNEKD [H40E] | 0.182 ± 0.11
KRCPSCQAPIEKNEGCLHMTCAKCNHGFCWRCLKSWKPNFKD [H40F] | -0.089 ± 0.35
KRCPSCQAPIEKNEGCLHMTCAKCNHGFCWRCLKSWKPNKKD [H40K] | -0.319 ± 0.15

Variants of: B2
Assay: as above
Details: Homo sapiens

Variant | abundance fitness
TELEAFAERFKQRRIKLGVTQADVGAALANLKIPGVGSLSQSTICRFESLTLSHNNMIALKPVLQAWLEEAE [R1T] | -0.133 ± 0.13
CELEAFAERFKQRRIKLGVTQADVGAALANLKIPGVGSLSQSTICRFESLTLSHNNMIALKPVLQAWLEEAE [R1C] | -0.229 ± 0.065
AELEAFAERFKQRRIKLGVTQADVGAALANLKIPGVGSLSQSTICRFESLTLSHNNMIALKPVLQAWLEEAE [R1A] | -0.282 ± 0.14
SELEAFAERFKQRRIKLGVTQADVGAALANLKIPGVGSLSQSTICRFESLTLSHNNMIALKPVLQAWLEEAE [R1S] | -0.109 ± 0.084
NELEAFAERFKQRRIKLGVTQADVGAALANLKIPGVGSLSQSTICRFESLTLSHNNMIALKPVLQAWLEEAE [R1N] | -0.153 ± 0.2
DELEAFAERFKQRRIKLGVTQADVGAALANLKIPGVGSLSQSTICRFESLTLSHNNMIALKPVLQAWLEEAE [R1D] | -0.419 ± 0.17
WELEAFAERFKQRRIKLGVTQADVGAALANLKIPGVGSLSQSTICRFESLTLSHNNMIALKPVLQAWLEEAE [R1W] | -0.164 ± 0.052
GELEAFAERFKQRRIKLGVTQADVGAALANLKIPGVGSLSQSTICRFESLTLSHNNMIALKPVLQAWLEEAE [R1G] | 0.002 ± 0.041
EELEAFAERFKQRRIKLGVTQADVGAALANLKIPGVGSLSQSTICRFESLTLSHNNMIALKPVLQAWLEEAE [R1E] | -0.093 ± 0.1
FELEAFAERFKQRRIKLGVTQADVGAALANLKIPGVGSLSQSTICRFESLTLSHNNMIALKPVLQAWLEEAE [R1F] | -0.142 ± 0.092
MELEAFAERFKQRRIKLGVTQADVGAALANLKIPGVGSLSQSTICRFESLTLSHNNMIALKPVLQAWLEEAE [R1M] | -0.08 ± 0.1
KELEAFAERFKQRRIKLGVTQADVGAALANLKIPGVGSLSQSTICRFESLTLSHNNMIALKPVLQAWLEEAE [R1K] | -0.226 ± 0.11
LELEAFAERFKQRRIKLGVTQADVGAALANLKIPGVGSLSQSTICRFESLTLSHNNMIALKPVLQAWLEEAE [R1L] | -0.125 ± 0.049
